Common to all, as to experiment: cell-based or functional assay
Experiment [1] addresses S protein of bat-derived SARS-CoV-like coronavirus WIV1 (bat-derived SARS-CoV-like coronavirus WIV1).
Experiment [2] has as its target S protein of SARS-CoV-2 prototype strain (SARS-CoV-2 prototype) (UniProt P0DTC2).
In experiment [3] the target is S protein of SARS-CoV (SARS-CoV) (UniProt P59594).
Experiment [4] has as its target S protein of bat-derived SARS-CoV-like coronavirus Rs3367 (bat-derived SARS-CoV-like coronavirus Rs3367).
In experiment [5] the target is S protein of Human Coronavirus NL63 (Human Coronavirus NL63) (UniProt Q6Q1S2).

For the substance EK1 polypeptide, the IC50, inhibition of pseudovirus infection (Caco-2, luciferase) in experiment [1] was 2450 nM; in experiment [2], 186 nM; in experiment [3] it was 841 nM; in experiment [4], 1340 nM; in experiment [5], 1070 nM.
Consider “AL7E protein (ACE2-linker-EK1 fusion protein with (GGGGS)7 linker)”, for which the IC50, inhibition of pseudovirus infection (Caco-2, luciferase) in experiment [2] is 0.37 nM.
As to “ACE2 protein alone (ACE2 peptidase domain alone) (from UniProt Q9BYF1 18-615) (receptor)”, the EC50, inactivation of pseudovirus (Caco-2, luciferase) in experiment [1] is 758 nM; in experiment [3], 1240 nM; in experiment [4] it was 274 nM. Moreover, the IC50, inhibition of pseudovirus infection (Caco-2, luciferase) was found to be 239 nM in experiment [1], 9.5 nM in experiment [3] and 249 nM in experiment [4].
For “AL2E protein (ACE2-linker-EK1 fusion protein with (GGGGS)2 linker) (from UniProt Q9BYF1 18-615)”, the IC50, inhibition of pseudovirus infection (Caco-2, luciferase) in experiment [2] is 0.6 nM.
In experiment [2], “AL6E protein (ACE2-linker-EK1 fusion protein with (GGGGS)6 linker)” yielded an IC50, inhibition of pseudovirus infection (Caco-2, luciferase) of 0.23 nM.
In the case of “AL5E protein (ACE2-linker-EK1 fusion protein with (GGGGS)5 linker)”, in experiment [1], the EC50, inactivation of pseudovirus (Caco-2, luciferase) was 3.54 nM; the Fold enhancement in activity of AL5E over ACE2 (EC50, pseudovirus inactivation) turned out to be 214 fold; the Fold enhancement in activity of AL5E over ACE2 (IC50, pseudovirus inhibition) worked out at 71.2 fold; the IC50, inhibition of pseudovirus infection (Caco-2, luciferase) was 3.36 nM. In experiment [2], the EC50, inactivation of pseudovirus (Caco-2, luciferase) was determined as 5.1 nM; the Fold enhancement of AL5E over ACE2 (EC50, pseudovirus inactivation) stood at 22.2 fold; the Fold enhancement of AL5E over ACE2 (IC50, pseudovirus inhibition) stood at 26.9 fold; the IC50, inhibition of pseudovirus infection (Caco-2, luciferase) was found to be 0.26 nM. Further, in experiment [3], the EC50, inactivation of pseudovirus (Caco-2, luciferase) came out at 18.1 nM; the Fold enhancement in activity of AL5E over ACE2 (EC50, pseudovirus inactivation) came to 68.1 fold; the Fold enhancement in activity of AL5E over ACE2 (IC50, pseudovirus inhibition) amounted to 13.8 fold; the IC50, inhibition of pseudovirus infection (Caco-2, luciferase) worked out at 0.69 nM. In addition, in experiment [4], the EC50, inactivation of pseudovirus (Caco-2, luciferase) was determined as 10.7 nM; the Fold enhancement in activity of AL5E over ACE2 (EC50, pseudovirus inactivation) is 25.6 fold; the Fold enhancement in activity of AL5E over ACE2 (IC50, pseudovirus inhibition) was 42.2 fold; the IC50, inhibition of pseudovirus infection (Caco-2, luciferase) is 5.9 nM. In experiment [5], the EC50, inactivation of pseudovirus (Caco-2, luciferase) was 1.08 nM; the Fold enhancement in activity of AL5E over ACE2 (EC50, pseudovirus inactivation) came out at 540 fold; the Fold enhancement in activity of AL5E over ACE2 (IC50, pseudovirus inhibition) came out at 34.4 fold; the IC50, inhibition of pseudovirus infection (Caco-2, luciferase) came to 0.83 nM.

(Values after patent EP4782466A1, “FUSION PROTEIN FOR INACTIVATING CORONAVIRUS AND USE THEREOF” (priority 2023, dated 2025).)
